One block for each substance: values may come before it.
Legend:
[1] = target: hu-CD96 isoform 2 on CHO cells (human) (UniProt P40200); test: FACS, Ab 0.08 nM
[2] = target: hu-CD96 isoform 2 on CHO cells (human) (UniProt P40200); test: FACS, CD155-Fc-FLAG 10 nM, Ab 0.0064 nM
[3] = target: cynomolgus monkey CD96 on cynomolgus monkey PBMCs (cynomolgus monkey); test: FACS, Ab 0.64 nM
[4] = target: human CD96 on primary human immune cells (PBMCs, NK cells, CD4+ T cells) (human) (UniProt P40200); test: FACS, Ab 0.64 nM
[5] = target: hu-CD96 isoform 2 on CHO cells (human) (UniProt P40200); test: FACS, blocks 10 nM CD155-Fc-FLAG binding to CD96-CHO
[6] = target: cynomolgus monkey CD96 on cynomolgus monkey PBMCs (cynomolgus monkey); test: FACS, Ab 0.128 nM
[7] = target: human CD96 on primary human immune cells (PBMCs, NK cells, CD4+ T cells) (human) (UniProt P40200); test: FACS, Ab 0.128 nM
[8] = target: hu-CD96 isoform 2 on CHO cells (human) (UniProt P40200); test: FACS, CD155-Fc-FLAG 10 nM, Ab 0.032 nM
[9] = target: hu-CD96 isoform 2 on CHO cells (human) (UniProt P40200); test: FACS, CD155-Fc-FLAG 10 nM, Ab 100 nM
[10] = target: hu-CD96 isoform 2 on CHO cells (human) (UniProt P40200); test: FACS, Ab 0.4 nM
[11] = target: hu-CD96 Fc (human); test: SPR 37C, biotin-CD96-Fc captured, IgG analyte
[12] = target: hu-CD96 isoform 2 on CHO cells (human) (UniProt P40200); test: FACS, Ab 10 nM
[13] = target: hu-CD96D1 D3-hFc (human); test: ELISA, coated CD96D1D3-hFc
[14] = target: hu-CD96 isoform 2 on CHO cells (human) (UniProt P40200); test: FACS, CD155-Fc-FLAG 10 nM, Ab 0.8 nM
[15] = target: hu-CD96 isoform 2 on CHO cells (human) (UniProt P40200); test: FACS, Ab 2 nM
[16] = target: cynomolgus monkey CD96 on cynomolgus monkey PBMCs (cynomolgus monkey); test: FACS, Ab 3.2 nM
[17] = target: human CD96 on primary human immune cells (PBMCs, NK cells, CD4+ T cells) (human) (UniProt P40200); test: FACS, Ab 3.2 nM
[18] = target: human CD96 on primary human immune cells (PBMCs, NK cells, CD4+ T cells) (human) (UniProt P40200); test: cell-based or functional assay
[19] = target: hu-CD96 isoform 2 on CHO cells (human) (UniProt P40200); test: FACS, CD155-Fc-FLAG 10 nM, Ab 20 nM
[20] = target: cynomolgus monkey CD96 on cynomolgus monkey PBMCs (cynomolgus monkey); test: FACS, Ab 80 nM
[21] = target: human CD96 on primary human immune cells (PBMCs, NK cells, CD4+ T cells) (human) (UniProt P40200); test: FACS, Ab 80 nM
[22] = target: hu-CD96 isoform 2 on CHO cells (human) (UniProt P40200); test: FACS, % positive curve
[23] = target: cynomolgus monkey CD96 on cynomolgus monkey PBMCs (cynomolgus monkey); test: FACS, % positive curve
[24] = target: human CD96 on primary human immune cells (PBMCs, NK cells, CD4+ T cells) (human) (UniProt P40200); test: FACS, % positive curve
[25] = target: hu-CD96 isoform 2 on CHO cells (human) (UniProt P40200); test: FACS, Ab 50 nM
[26] = target: recombinant hu-CD96 (M1-M503-polyHis) (human) (UniProt P40200); test: ELISA, blocks hu-CD96-his binding to coated CD155-hFc
[27] = target: hu-CD96 (soluble, isoform 2 extracellular domain) (human) (UniProt P40200); test: SPR 25C, IgG captured, CD96 analyte
[28] = target: cynomolgus monkey CD96 on cynomolgus monkey PBMCs (cynomolgus monkey); test: FACS, Ab 0.00512 nM
[29] = target: human CD96 on primary human immune cells (PBMCs, NK cells, CD4+ T cells) (human) (UniProt P40200); test: FACS, Ab 0.00512 nM
[30] = target: hu-CD96 isoform 2 on CHO cells (human) (UniProt P40200); test: FACS, Ab 0.016 nM
[31] = target: hu-CD96 isoform 2 on CHO cells (human) (UniProt P40200); test: FACS, Ab 0.0032 nM
[32] = target: hu-CD96 isoform 2 on CHO cells (human) (UniProt P40200); test: FACS, CD155-Fc-FLAG 10 nM, Ab 4 nM
[33] = target: hu-CD96 isoform 2 on CHO cells (human) (UniProt P40200); test: FACS, CD155-Fc-FLAG 10 nM, Ab 0.16 nM
[34] = target: cynomolgus monkey CD96 on cynomolgus monkey PBMCs (cynomolgus monkey); test: FACS, Ab 0.0256 nM
[35] = target: human CD96 on primary human immune cells (PBMCs, NK cells, CD4+ T cells) (human) (UniProt P40200); test: FACS, Ab 0.0256 nM
[36] = target: cynomolgus monkey CD96 on cynomolgus monkey PBMCs (cynomolgus monkey); test: FACS, Ab 16 nM
[37] = target: human CD96 on primary human immune cells (PBMCs, NK cells, CD4+ T cells) (human) (UniProt P40200); test: FACS, Ab 16 nM
[38] = target: hu-CD226 His tag (human) (UniProt Q15762); test: SPR 25C, biotin-CD226-His captured, IgG analyte
[39] = target: cy-CD226 His tag (cynomolgus monkey); test: SPR 25C, biotin-CD226-His captured, IgG analyte
[40] = target: hu-CD96 isoform 1 on HEK293T cells (human) (UniProt P40200); test: FACS, Ab 0.08 nM
[41] = target: hu-CD96 isoform 1 on HEK293T cells (human) (UniProt P40200); test: FACS, Ab 0.4 nM
[42] = target: hu-CD96 isoform 1 on HEK293T cells (human) (UniProt P40200); test: FACS, Ab 10 nM
[43] = target: hu-CD96 isoform 1 on HEK293T cells (human) (UniProt P40200); test: FACS, Ab 2 nM
[44] = target: hu-CD96 isoform 1 on HEK293T cells (human) (UniProt P40200); test: FACS, Ab 50 nM
[45] = target: hu-CD96 isoform 1 on HEK293T cells (human) (UniProt P40200); test: FACS, Ab 0.016 nM

hu-CD96 Fc (human), sequence (chain, as listed by the source): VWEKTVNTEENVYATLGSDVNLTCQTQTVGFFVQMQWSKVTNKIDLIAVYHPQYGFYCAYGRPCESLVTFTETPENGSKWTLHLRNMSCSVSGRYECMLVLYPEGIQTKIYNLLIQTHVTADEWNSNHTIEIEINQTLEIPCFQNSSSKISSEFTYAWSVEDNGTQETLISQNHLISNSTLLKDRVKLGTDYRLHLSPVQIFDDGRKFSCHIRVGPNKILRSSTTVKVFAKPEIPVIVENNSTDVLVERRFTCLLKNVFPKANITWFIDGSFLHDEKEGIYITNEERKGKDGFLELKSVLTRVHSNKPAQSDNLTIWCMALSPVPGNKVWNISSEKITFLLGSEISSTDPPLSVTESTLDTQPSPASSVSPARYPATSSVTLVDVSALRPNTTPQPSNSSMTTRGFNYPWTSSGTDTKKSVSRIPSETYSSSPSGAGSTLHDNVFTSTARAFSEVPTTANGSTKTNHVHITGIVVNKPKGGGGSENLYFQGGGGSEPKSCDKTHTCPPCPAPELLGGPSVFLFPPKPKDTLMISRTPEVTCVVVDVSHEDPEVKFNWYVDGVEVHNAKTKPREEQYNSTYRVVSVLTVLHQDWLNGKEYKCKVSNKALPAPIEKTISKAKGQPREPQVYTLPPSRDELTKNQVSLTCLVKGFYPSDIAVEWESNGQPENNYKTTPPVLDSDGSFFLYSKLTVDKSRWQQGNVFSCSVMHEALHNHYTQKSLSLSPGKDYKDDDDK
hu-CD226 His tag (human), sequence (Q15762 19-247 limits assumed): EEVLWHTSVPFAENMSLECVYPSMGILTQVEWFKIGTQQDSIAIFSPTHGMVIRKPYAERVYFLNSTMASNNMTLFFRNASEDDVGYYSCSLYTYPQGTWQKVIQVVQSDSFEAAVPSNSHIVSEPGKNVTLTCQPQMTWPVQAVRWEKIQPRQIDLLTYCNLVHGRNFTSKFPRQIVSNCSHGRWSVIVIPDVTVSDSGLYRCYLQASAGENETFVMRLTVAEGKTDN
hu-CD96D1 D3-hFc (human), sequence (chain, as listed by the source limits assumed): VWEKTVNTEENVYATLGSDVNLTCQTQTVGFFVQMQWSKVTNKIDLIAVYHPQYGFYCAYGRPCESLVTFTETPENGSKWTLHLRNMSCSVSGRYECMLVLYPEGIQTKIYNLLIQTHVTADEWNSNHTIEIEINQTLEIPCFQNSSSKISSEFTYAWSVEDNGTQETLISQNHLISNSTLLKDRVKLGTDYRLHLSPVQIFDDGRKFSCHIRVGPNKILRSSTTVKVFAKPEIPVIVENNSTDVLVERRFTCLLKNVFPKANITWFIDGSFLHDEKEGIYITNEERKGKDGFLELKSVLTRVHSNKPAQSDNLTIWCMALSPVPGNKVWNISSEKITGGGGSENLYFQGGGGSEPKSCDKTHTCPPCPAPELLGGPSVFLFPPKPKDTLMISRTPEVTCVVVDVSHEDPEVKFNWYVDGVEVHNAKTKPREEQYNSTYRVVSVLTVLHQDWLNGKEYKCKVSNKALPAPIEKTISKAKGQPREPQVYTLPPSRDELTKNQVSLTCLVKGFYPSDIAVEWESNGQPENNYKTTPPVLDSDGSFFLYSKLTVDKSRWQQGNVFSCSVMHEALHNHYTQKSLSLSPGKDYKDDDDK
cy-CD226 His tag (cynomolgus monkey), sequence (chain, as listed by the source): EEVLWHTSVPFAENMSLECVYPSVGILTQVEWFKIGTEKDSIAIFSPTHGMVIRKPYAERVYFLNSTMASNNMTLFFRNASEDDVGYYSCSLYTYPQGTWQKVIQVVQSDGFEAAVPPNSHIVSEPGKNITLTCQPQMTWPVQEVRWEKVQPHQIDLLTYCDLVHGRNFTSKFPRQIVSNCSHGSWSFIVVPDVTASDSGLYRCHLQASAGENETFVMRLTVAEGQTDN

- % positive [1]: 0.2%
- CD155-Fc binding (MedFI) [2]: 64100 MedFI
- % positive [3]: 4.7%
- % positive [4]: 27.4%
- IC50 [5]: 0.91 nM
- % positive [6]: 5.2%
- % positive [7]: 2%
- CD155-Fc binding (MedFI) [8]: 69300 MedFI
- CD155-Fc binding (MedFI) [9]: 5050 MedFI
- % positive [10]: 4%
- Kd [11]: 14.2 nM
- koff [11]: 0.0012 s⁻¹
- kon [11]: 84400 M⁻¹ s⁻¹
- % positive [12]: 21.5%
- EC50 [13]: 0.98 nM
- CD155-Fc binding (MedFI) [14]: 40300 MedFI
- % positive [15]: 15.8%
- % positive [16]: 5.2%
- % positive [17]: 76.7%
- Human NK cell IFNγ secretion (fold over background), Ab 0.08 nM [18]: 1.38 fold
- Human NK cell IFNγ secretion (fold over background), Ab 0.4 nM [18]: 0.69 fold
- Human NK cell IFNγ secretion (fold over background), Ab 2 nM [18]: 1.27 fold
- Human NK cell IFNγ secretion (fold over background), Ab 10 nM [18]: 1.39 fold
- Human NK cell IFNγ secretion (fold over background), Ab 50 nM [18]: 1.68 fold
- Human NK cell IFNγ secretion (fold over background), Ab 250 nM [18]: 1.62 fold
- Human NK cell IFNγ secretion, EC50 [18]: 5.53 nM
- Human NK cell IFNγ secretion, maximal efficacy relative to h10G1 [18]: 61%
- CD155-Fc binding (MedFI) [19]: 5040 MedFI
- % positive [20]: 4.9%
- % positive [21]: 91.9%
- EC50 [22]: 1.15 nM
- EC50 [23]: 1.1 nM
- EC50 [24]: 1.22 nM
- % positive [25]: 22%
- IC50 [26]: 2.57 nM
- Kd [27]: 14.3 nM
- % positive [28]: 4.5%
- % positive [29]: 1.3%
- % positive [30]: 0.1%
- % positive [31]: 0.1%
- CD155-Fc binding (MedFI) [32]: 5040 MedFI
- CD155-Fc binding (MedFI) [33]: 62600 MedFI
- % positive [34]: 5%
- % positive [35]: 0.9%
- % positive [36]: 5.4%
- % positive [37]: 94.3%
Substance: NK92.39 (antibody)

- Kd [38]: 6.9 nM
- Kd [39]: 0.02 nM
Substance: anti-hCD226 antibody DX11

- CD155-Fc binding (MedFI) [2]: 47700 MedFI
- % positive [3]: 0.59%
- % positive [4]: 4.04%
- % positive [6]: 0.31%
- % positive [7]: 3.98%
- CD155-Fc binding (MedFI) [8]: 52800 MedFI
- CD155-Fc binding (MedFI) [9]: 51700 MedFI
- CD155-Fc binding (MedFI) [14]: 58300 MedFI
- % positive [16]: 1.15%
- % positive [17]: 4.67%
- CD155-Fc binding (MedFI) [19]: 57300 MedFI
- % positive [20]: 2.36%
- % positive [21]: 3.1%
- % positive [28]: 0.41%
- % positive [29]: 5.29%
- CD155-Fc binding (MedFI) [32]: 63100 MedFI
- CD155-Fc binding (MedFI) [33]: 59400 MedFI
- % positive [34]: 0.57%
- % positive [35]: 5.5%
- % positive [36]: 0.64%
- % positive [37]: 4.61%
Substance: hu-IgG1 control antibody

- % positive [1]: 0.11%
- % positive [40]: 0.41%
- CD155-Fc binding (MedFI) [2]: 64300 MedFI
- % positive [3]: 1.07%
- % positive [4]: 1.5%
- % positive [6]: 0.83%
- % positive [7]: 1.09%
- CD155-Fc binding (MedFI) [8]: 65400 MedFI
- CD155-Fc binding (MedFI) [9]: 76000 MedFI
- % positive [10]: 0.14%
- % positive [41]: 0.49%
- % positive [12]: 0.18%
- % positive [42]: 0.48%
- CD155-Fc binding (MedFI) [14]: 66600 MedFI
- % positive [15]: 0.27%
- % positive [43]: 0.49%
- % positive [16]: 0.95%
- % positive [17]: 1.42%
- CD155-Fc binding (MedFI) [19]: 71600 MedFI
- % positive [20]: 1.9%
- % positive [21]: 2.34%
- % positive [25]: 0.42%
- % positive [44]: 0.75%
- % positive [28]: 0.76%
- % positive [29]: 0.98%
- % positive [30]: 0.06%
- % positive [45]: 0.41%
- % positive [31]: 0.03%
- CD155-Fc binding (MedFI) [32]: 71600 MedFI
- CD155-Fc binding (MedFI) [33]: 64400 MedFI
- % positive [34]: 1%
- % positive [35]: 1.48%
- % positive [36]: 1.77%
- % positive [37]: 2.05%
Substance: muIgG1 control antibody
